Source: article PMC6587457, “The green microalga Lobosphaera incisa harbours an arachidonate 15S‐lipoxygenase” (Plant Biology (Stuttgart, Germany), 2018)

T1: LiLOX (Lobosphaera incisa, UniProt A0A3G6V563)
T1 construct: full length 994 aa; cloned without N-terminal putative plastid signal peptide of 62 residues (ChloroP); N-terminal His tag, pET28a; E. coli BL21 Star; IMAC and SEC
T1 sequence (A0A3G6V563 63-994): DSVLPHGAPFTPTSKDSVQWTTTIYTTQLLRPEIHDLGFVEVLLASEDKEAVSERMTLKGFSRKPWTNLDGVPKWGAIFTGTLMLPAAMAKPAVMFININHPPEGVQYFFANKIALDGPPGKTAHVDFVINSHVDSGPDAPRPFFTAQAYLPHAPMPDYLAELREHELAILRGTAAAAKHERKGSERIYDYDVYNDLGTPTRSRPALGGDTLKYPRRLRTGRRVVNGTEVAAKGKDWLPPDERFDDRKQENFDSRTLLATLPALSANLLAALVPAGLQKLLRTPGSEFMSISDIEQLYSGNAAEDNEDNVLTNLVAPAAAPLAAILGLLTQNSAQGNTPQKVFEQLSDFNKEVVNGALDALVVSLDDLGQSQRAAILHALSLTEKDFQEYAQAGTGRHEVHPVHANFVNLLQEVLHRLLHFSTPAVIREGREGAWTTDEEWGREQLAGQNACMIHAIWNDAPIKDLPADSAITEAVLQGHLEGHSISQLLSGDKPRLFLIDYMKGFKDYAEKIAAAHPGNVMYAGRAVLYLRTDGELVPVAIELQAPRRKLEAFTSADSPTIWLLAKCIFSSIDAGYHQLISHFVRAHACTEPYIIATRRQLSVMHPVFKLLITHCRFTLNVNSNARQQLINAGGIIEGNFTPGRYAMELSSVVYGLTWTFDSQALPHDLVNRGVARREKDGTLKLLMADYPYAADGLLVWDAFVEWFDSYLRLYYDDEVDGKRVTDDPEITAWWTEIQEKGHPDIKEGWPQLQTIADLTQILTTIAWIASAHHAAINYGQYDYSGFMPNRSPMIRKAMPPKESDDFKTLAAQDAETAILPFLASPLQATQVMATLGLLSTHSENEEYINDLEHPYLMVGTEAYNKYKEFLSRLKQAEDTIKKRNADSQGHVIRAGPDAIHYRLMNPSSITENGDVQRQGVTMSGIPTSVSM


Key:
LiLOX = molecular target: T1, LiLOX; test: absorbance at […] nm (conjugated diene); type: biochemical; settings: Hill equation fit (not Michaelis-Menten), 20 mM Bis-TRIS propane pH 7.5, 30 °C, 1 μg enzyme, 10-100 μM substrate
purified protein = substrate: CCCCC/C=C\C/C=C\C/C=C\C/C=C\CCCC(=O)O; test: purified protein; type: biochemical, Lobosphaera incisa; settings: Hill equation fit (not Michaelis-Menten), 20 mM Bis-TRIS propane pH 7.5, 30 °C, 1 μg enzyme, 10-100 μM substrate

Km (LiLOX)	Molecule	K0.5 (purified protein)	kcat (purified protein)	kcat/Km (purified protein)
31.2 ± 2.78 µM	CCCCC/C=C\C/C=C\CCCCCCCC(=O)O [18:2(n‐6)]	–	–	–
55.5 ± 4.1 µM	CC/C=C\C/C=C\C/C=C\CCCCCCCC(=O)O [18:3(n‐3)]	–	–	–
–	LiLOX (Lobosphaera incisa) (protein, full length 994 aa; cloned without N-terminal putative plastid signal peptide of 62 residues (ChloroP); N-terminal His tag, pET28a; E. coli BL21 Star; IMAC and SEC) DSVLPHGAPFTPTSKDSVQWTTTIYTTQLLRPEIHDLGFVEVLLASEDKEAVSERMTLKGFSRKPWTNLDGVPKWGAIFTGTLMLPAAMAKPAVMFININHPPEGVQYFFANKIALDGPPGKTAHVDFVINSHVDSGPDAPRPFFTAQAYLPHAPMPDYLAELREHELAILRGTAAAAKHERKGSERIYDYDVYNDLGTPTRSRPALGGDTLKYPRRLRTGRRVVNGTEVAAKGKDWLPPDERFDDRKQENFDSRTLLATLPALSANLLAALVPAGLQKLLRTPGSEFMSISDIEQLYSGNAAEDNEDNVLTNLVAPAAAPLAAILGLLTQNSAQGNTPQKVFEQLSDFNKEVVNGALDALVVSLDDLGQSQRAAILHALSLTEKDFQEYAQAGTGRHEVHPVHANFVNLLQEVLHRLLHFSTPAVIREGREGAWTTDEEWGREQLAGQNACMIHAIWNDAPIKDLPADSAITEAVLQGHLEGHSISQLLSGDKPRLFLIDYMKGFKDYAEKIAAAHPGNVMYAGRAVLYLRTDGELVPVAIELQAPRRKLEAFTSADSPTIWLLAKCIFSSIDAGYHQLISHFVRAHACTEPYIIATRRQLSVMHPVFKLLITHCRFTLNVNSNARQQLINAGGIIEGNFTPGRYAMELSSVVYGLTWTFDSQALPHDLVNRGVARREKDGTLKLLMADYPYAADGLLVWDAFVEWFDSYLRLYYDDEVDGKRVTDDPEITAWWTEIQEKGHPDIKEGWPQLQTIADLTQILTTIAWIASAHHAAINYGQYDYSGFMPNRSPMIRKAMPPKESDDFKTLAAQDAETAILPFLASPLQATQVMATLGLLSTHSENEEYINDLEHPYLMVGTEAYNKYKEFLSRLKQAEDTIKKRNADSQGHVIRAGPDAIHYRLMNPSSITENGDVQRQGVTMSGIPTSVSM	12.64 ± 1.1 µM	10.1 ± 0.454 s⁻¹	799000 M⁻¹ s⁻¹
